Patent US20240309389A1, “Chimeric FCeRI a-Chain Gene, Chimeric FCeRI a-Chain Protein, Cells, Analysis Kit and Analysis Method” (TEIKYO HEISEI UNIVERSITY, priority 2021, published 2024)

Target: Human-Rat chimeric FcεRI α-chain protein (chimeric FcεRI on the cell membrane of HuRa clones) (human (extracellular domain) and rat (transmembrane and intracellular domains); rat) (UniProt P13386)
Test: cell-based or functional assay

Human-Rat chimeric FcεRI α-chain protein (chimeric FcεRI on the cell membrane of HuRa clones) (human (extracellular domain) and rat (transmembrane and intracellular domains); rat), sequence (chain, as listed by the source mutant, form in doubt, chain 1 of 3): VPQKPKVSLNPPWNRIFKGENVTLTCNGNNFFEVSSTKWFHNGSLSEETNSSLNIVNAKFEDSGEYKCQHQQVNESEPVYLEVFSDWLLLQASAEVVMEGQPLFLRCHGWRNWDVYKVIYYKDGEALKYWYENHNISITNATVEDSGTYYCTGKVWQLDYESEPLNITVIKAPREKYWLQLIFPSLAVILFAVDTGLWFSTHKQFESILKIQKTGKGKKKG
Human-Rat chimeric FcεRI α-chain protein (chimeric FcεRI on the cell membrane of HuRa clones) (human (extracellular domain) and rat (transmembrane and intracellular domains); rat), sequence (P13386 whole entry, stated change not applied, form in doubt, chain 2 of 3, the tested form may be a part): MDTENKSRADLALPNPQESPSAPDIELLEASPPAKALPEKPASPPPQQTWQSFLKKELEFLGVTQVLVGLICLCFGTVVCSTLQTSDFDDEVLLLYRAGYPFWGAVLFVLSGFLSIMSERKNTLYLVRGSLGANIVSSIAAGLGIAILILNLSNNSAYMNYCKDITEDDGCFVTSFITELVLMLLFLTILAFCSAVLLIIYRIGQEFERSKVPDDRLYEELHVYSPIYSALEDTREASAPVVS
Human-Rat chimeric FcεRI α-chain protein (chimeric FcεRI on the cell membrane of HuRa clones) (human (extracellular domain) and rat (transmembrane and intracellular domains); rat), sequence (P20411 19-86, stated change not applied, form in doubt, chain 3 of 3): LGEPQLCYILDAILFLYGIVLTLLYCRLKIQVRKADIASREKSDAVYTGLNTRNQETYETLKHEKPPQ

For “purified human IgE (ab65866, Abcam) (from UniProt P01854 1-428) (antibody)”, the luciferase expression level (NF-AT reporter), IgE-sensitized (aIgE) against not sensitized (no IgE) cells, stimulated with anti-human IgE antibody; seven HuRa clones was 100 times.
